Assays:
Experiment in all cases: ELISA; coated glycoprotein, biotin-labeled lectin 1 µg/mL; grade of A450 reaction value (Low 0.1 to 0.2, Moderate 0.2 to 0.5, High 0.5 or more)
[1] = target: α-Fetoprotein L3 (Homo sapiens (Human)) (UniProt P02771)
[2] = target: Prostate-specific antigen (Homo sapiens (Human)) (UniProt P07288)
[3] = target: α-Fetoprotein (Homo sapiens (Human)) (UniProt P02771)
[4] = target: Immunoglobulin A
[5] = target: Immunoglobulin G
[6] = target: Immunoglobulin M
[7] = target: α2-Macroglobulin
Sequence of α2-Macroglobulin (P01023 24-1474): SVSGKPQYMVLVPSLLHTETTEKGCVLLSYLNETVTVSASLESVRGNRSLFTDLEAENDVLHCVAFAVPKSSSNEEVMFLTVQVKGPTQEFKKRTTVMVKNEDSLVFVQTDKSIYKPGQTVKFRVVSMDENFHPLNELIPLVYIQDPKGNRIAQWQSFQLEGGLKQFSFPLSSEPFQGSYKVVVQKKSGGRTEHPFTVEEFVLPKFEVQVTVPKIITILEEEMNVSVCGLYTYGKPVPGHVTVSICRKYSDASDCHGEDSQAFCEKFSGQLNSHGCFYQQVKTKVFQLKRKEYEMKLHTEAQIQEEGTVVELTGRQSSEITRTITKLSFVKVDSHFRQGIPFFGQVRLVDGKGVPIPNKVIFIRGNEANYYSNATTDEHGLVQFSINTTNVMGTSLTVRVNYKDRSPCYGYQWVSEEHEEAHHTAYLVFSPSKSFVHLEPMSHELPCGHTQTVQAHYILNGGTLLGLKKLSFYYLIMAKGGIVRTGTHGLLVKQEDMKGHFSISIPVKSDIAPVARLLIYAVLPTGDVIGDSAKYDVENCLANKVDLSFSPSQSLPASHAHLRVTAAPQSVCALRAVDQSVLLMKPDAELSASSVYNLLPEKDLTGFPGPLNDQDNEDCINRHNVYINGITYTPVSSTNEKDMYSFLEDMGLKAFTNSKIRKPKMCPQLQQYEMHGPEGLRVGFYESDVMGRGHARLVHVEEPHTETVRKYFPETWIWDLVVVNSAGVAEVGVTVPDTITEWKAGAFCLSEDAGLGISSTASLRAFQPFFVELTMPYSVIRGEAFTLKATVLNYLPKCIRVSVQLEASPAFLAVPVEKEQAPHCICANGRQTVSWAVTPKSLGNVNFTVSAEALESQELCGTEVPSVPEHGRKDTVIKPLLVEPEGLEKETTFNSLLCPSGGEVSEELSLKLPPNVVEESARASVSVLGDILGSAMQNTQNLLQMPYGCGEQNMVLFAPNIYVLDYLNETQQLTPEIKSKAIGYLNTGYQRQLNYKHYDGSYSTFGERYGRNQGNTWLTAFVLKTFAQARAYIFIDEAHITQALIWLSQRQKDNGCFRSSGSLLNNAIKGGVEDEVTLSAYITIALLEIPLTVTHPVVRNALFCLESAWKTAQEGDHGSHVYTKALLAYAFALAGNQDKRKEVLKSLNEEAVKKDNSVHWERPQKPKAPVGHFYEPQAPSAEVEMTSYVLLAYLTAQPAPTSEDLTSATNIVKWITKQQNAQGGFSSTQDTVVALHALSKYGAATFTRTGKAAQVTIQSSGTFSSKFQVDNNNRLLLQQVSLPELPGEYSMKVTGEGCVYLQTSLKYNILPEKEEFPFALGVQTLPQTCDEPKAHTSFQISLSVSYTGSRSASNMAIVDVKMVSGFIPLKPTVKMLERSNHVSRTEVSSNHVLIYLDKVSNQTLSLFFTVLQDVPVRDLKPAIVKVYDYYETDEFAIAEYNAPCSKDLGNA

Sequence of α-Fetoprotein L3 (Homo sapiens (Human)) (P02771 19-609 limits assumed, form in doubt): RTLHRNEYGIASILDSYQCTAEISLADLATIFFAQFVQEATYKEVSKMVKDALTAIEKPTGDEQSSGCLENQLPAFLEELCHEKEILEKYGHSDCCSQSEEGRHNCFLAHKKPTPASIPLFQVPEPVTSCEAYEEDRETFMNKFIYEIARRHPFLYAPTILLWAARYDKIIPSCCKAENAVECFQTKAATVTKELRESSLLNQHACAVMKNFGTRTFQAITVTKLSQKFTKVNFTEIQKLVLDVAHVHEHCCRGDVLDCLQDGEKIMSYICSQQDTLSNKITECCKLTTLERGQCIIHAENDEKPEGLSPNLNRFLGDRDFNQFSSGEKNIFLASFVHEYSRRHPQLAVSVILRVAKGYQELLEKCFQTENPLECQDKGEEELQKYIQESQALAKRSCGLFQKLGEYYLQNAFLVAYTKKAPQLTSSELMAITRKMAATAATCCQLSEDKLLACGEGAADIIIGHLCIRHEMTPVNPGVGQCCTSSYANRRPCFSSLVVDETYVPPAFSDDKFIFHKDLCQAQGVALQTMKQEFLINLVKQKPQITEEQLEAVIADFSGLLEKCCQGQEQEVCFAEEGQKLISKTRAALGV
Sequence of Prostate-specific antigen (Homo sapiens (Human)) (P07288 25-261 limits assumed, form in doubt): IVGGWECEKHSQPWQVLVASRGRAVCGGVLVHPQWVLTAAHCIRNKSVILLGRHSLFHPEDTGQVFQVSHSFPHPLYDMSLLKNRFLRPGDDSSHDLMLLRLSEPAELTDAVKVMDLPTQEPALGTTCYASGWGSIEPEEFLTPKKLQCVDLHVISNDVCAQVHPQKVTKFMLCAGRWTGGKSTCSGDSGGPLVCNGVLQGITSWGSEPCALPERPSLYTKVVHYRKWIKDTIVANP
Sequence of α-Fetoprotein (Homo sapiens (Human)) (P02771 19-609 limits assumed, form in doubt): as the sequence (P02771 19-609 limits assumed, form in doubt) above

reaction value (absorbance at 450 nm minus blank) [1] [od] | reaction value (absorbance at 450 nm minus blank) [2] [od] | reaction value (absorbance at 450 nm minus blank) [3] [od] | reaction value (absorbance at 450 nm minus blank) [4] [od] | reaction value (absorbance at 450 nm minus blank) [5] [od] | reaction value (absorbance at 450 nm minus blank) [6] [od] | reaction value (absorbance at 450 nm minus blank) [7] [od] | Substance
> 0.5 | – | – | – | – | – | – | Lens culinaris lectin (from UniProt P02870 31-210; P02870 218-269)
> 0.5 | 0.2 to 0.5 | 0.2 to 0.5 | – | – | – | – | Aleuria aurantia lectin (from UniProt P18891 2-313)
> 0.5 | > 0.5 | – | 0.2 to 0.5 | 0.1 to 0.2 | 0.1 to 0.2 | 0.2 to 0.5 | Pholiota terrestris Overholts lectin

— patent US20120244563A1
